Results reported in paper PMC5784833 (Journal of the American Chemical Society, 2017).

System: CC(=O)Oc1ccc([N+](=O)[O-])cc1
Assay: purified protein

Which Km does the source give for “carbonic anhydrase II (CA-II) (Homo sapiens)” here?
Its Km is 2520 ± 260 µM.
